{
  "source": "IntAct's records for PubMed 11056176",
  "parents": {"B1": {"name": "snRNA-activating protein complex subunit 4 (Homo sapiens), Q5SXM2 (parent)", "chain": "MDVDAEREKITQEIKELERILDPGSSGSHVEISESSLESDSEADSLPSEDLDPADPPISEEERWGEASNDEDDPKDKTLPEDPETCLQLNMVYQEVIQEKLAEANLLLAQNREQQEELMRDLAGSKGTKVKDGKSLPPSTYMGHFMKPYFKDKVTGVGPPANEDTREKAAQGIKAFEELLVTKWKNWEKALLRKSVVSDRLQRLLQPKLLKLEYLHQKQSKVSSELERQALEKQGREAEKEIQDINQLPEEALLGNRLDSHDWEKISNINFEGSRSAEEIRKFWQNSEHPSINKQEWSREEEERLQAIAAAHGHLEWQKIAEELGTSRSAFQCLQKFQQHNKALKRKEWTEEEDRMLTQLVQEMRVGSHIPYRRIVYYMEGRDSMQLIYRWTKSLDPGLKKGYWAPEEDAKLLQAVAKYGEQDWFKIREEVPGRSDAQCRDRYLRRLHFSLKKGRWNLKEEEQLIELIEKYGVGHWAKIASELPHRSGSQCLSKWKIMMGKKQGLRRRRRRARHSVRWSSTSSSGSSSGSSGGSSSSSSSSSEEDEPEQAQAGEGDRALLSPQYMVPDMDLWVPARQSTSQPWRGGAGAWLGGPAASLSPPKGSSASQGGSKEASTTAAAPGEETSPVQVPARAHGPVPRSAQASHSADTRPAGAEKQALEGGRRLLTVPVETVLRVLRANTAARSCTQKEQLRQPPLPTSSPGVSSGDSVARSHVQWLRHRATQSGQRRWRHALHRRLLNRRLLLAVTPWVGDVVVPCTQASQRPAVVQTQADGLREQLQQARLASTPVFTLFTQLFHIDTAGCLEVVRERKALPPRLPQAGARDPPVHLLQASSSAQSTPGHLFPNVPAQEASKSASHKGSRRLASSRVERTLPQASLLASTGPRPKPKTVSELLQEKRLQEARAREATRGPVVLPSQLLVSSSVILQPPLPHTPHGRPAPGPTVLNVPLSGPGAPAAAKPGTSGSWQEAGTSAKDKRLSTMQALPLAPVFSEAEGTAPAASQAPALGPGQISVSCPESGLGQSQAPAASRKQGLPEAPPFLPAAPSPTPLPVQPLSLTHIGGPHVATSVPLPVTWVLTAQGLLPVPVPAVVSLPRPAGTPGPAGLLATLLPPLTETRAAQGPRAPALSSSWQPPANMNREPEPSCRTDTPAPPTHALSQSPAEADGSVAFVPGEAQVAREIPEPRTSSHADPPEAEPPWSGRLPAFGGVIPATEPRGTPGSPSGTQEPRGPLGLEKLPLRQPGPEKGALDLEKPPLPQPGPEKGALDLGLLSQEGEAATQQWLGGQRGVRVPLLGSRLPYQPPALCSLRALSGLLLHKKALEHKATSLVVGGEAERPAGALQASLGLVRGQLQDNPAYLLLRARFLAAFTLPALLATLAPQGVRTTLSVPSRVGSESEDEDLLSELELADRDGQPGCTTATCPIQGAPDSGKCSASSCLDTSNDPDDLDVLRTRHARHTRKRRRLV", "partner": "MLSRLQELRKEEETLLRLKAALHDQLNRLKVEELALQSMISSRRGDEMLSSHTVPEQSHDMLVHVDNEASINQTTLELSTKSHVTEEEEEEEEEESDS"}, "B2": {"name": "snRNA-activating protein complex subunit 5 (Homo sapiens), O75971 (parent)", "chain": "B1 partner", "partner": "B1 chain"}, "B3": {"name": "snRNA-activating protein complex subunit 4 (Homo sapiens), Q5SXM2 (parent)", "chain": "B1 chain", "partner": "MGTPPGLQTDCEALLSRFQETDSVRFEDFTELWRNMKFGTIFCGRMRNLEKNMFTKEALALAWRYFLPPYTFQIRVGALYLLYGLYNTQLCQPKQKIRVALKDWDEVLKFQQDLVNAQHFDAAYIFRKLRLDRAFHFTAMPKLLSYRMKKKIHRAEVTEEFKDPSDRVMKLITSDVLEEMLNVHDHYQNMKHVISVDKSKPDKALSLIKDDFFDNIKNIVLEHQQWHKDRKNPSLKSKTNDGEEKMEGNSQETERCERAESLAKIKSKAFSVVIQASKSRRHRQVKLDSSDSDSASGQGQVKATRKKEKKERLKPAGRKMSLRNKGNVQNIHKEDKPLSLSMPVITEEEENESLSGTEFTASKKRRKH"}},
  "data": [
    {"variants_of": "B1", "conditions": "with snpc5_human SNAPC5, O75971", "values": [
      {"variant": "L87A;Q94A", "effect of a mutation on the interaction": "disrupting interaction strength"},
      {"variant": "L89A;V96A", "effect of a mutation on the interaction": "decreasing interaction strength"},
      {"variant": "Q94A", "effect of a mutation on the interaction": "disrupting interaction strength"},
      {"variant": "Q94L", "effect of a mutation on the interaction": "disrupting interaction strength"},
      {"variant": "L101A;L108A", "effect of a mutation on the interaction": "disrupting interaction strength"},
      {"variant": "Q115A;L122A", "effect of a mutation on the interaction": "disrupting interaction strength"},
      {"variant": "Q115L", "effect of a mutation on the interaction": "disrupting interaction strength"}
    ]},
    {"variants_of": "B2", "conditions": "with snpc4_human SNAPC4, Q5SXM2", "values": [
      {"variant": "L8A", "effect of a mutation on the interaction": "decreasing interaction strength"},
      {"variant": "L15A;L22A", "effect of a mutation on the interaction": "disrupting interaction strength"},
      {"variant": "L18A", "effect of a mutation on the interaction": "decreasing interaction strength"},
      {"variant": "L29A;L36A", "effect of a mutation on the interaction": "disrupting interaction strength"}
    ]},
    {"variants_of": "B3", "conditions": "with snpc1_human SNAPC1, Q16533", "values": [
      {"variant": "L1311A", "effect of a mutation on the interaction": "decreasing interaction strength"},
      {"variant": "L1301A;L1308A", "effect of a mutation on the interaction": "decreasing interaction strength"},
      {"variant": "L1355A;L1362A", "effect of a mutation on the interaction": "disrupting interaction strength"},
      {"variant": "L1364A", "effect of a mutation on the interaction": "disrupting interaction strength"},
      {"variant": "L1369A", "effect of a mutation on the interaction": "decreasing interaction strength"},
      {"variant": "L1297A;Q1304A", "effect of a mutation on the interaction": "with no effect"},
      {"variant": "L1314A", "effect of a mutation on the interaction": "disrupting interaction strength"}
    ]}
  ]
}
